Measured values: doi:10.1101/638080

Target: Chloride Intracellular Channel 1 (CLIC1), human, with N-terminal twin strep tag (human) (UniProt O00299)
Assay: mass photometry

- stoichiometry N: 6
Substance: Chloride Intracellular Channel 1 (CLIC1), human, with N-terminal twin strep tag (from UniProt O00299 1-241) (natural protein)
